Experimental data published in patent publication US8512970B2, “Rapid bioluminescence detection assay” (The Secretary of State for Health, priority 2009, dated 2013).

Assay: Isoelectric point of reporter kinases (Table 2)
Type: physicochemical

B1: S. acidocaldarius: Adenylate kinase (AK) from Sulfolobus acidocaldarius, trimer; reporter kinase (protein, UniProt P35028 1-194, looked up)
Adenylate kinase: MKIGIVTGIPGVGKSTVLAKVKEILDNQGINNKIINYGDFMLATALKLGYAKDRDEMRKLSVEKQKKLQIDAAKGIAEEARAGGEGYLFIDTHAVIRTPSGYLPGLPSYVITEINPSVIFLLEADPKIILSRQKRDTTRNRNDYSDESVILETINFARYAATASAVLAGSTVKVIVNVEGDPSIAANEIIRSMK
pI Actual (if known): > 10

B2: T. maritima: Adenylate kinase (AK) from Thermotoga maritima, monomer; reporter kinase (protein, UniProt Q9X1I8 1-220, looked up)
Adenylate kinase: MMAYLVFLGPPGAGKGTYAKRLQEITGIPHISTGDIFRDIVKKENDELGKKIKEIMERGELVPDELVNEVVKRRLSEKDCERGFILDGYPRTVAQAEFLDGFLKTQNKELTAAVLFEVPEEVVVQRLTARRICPKCGRIYNLISLPPKEDELCDDCKVKLVQREDDKEETVRHRYKVYLEKTQPVIDYYDKKGILKRVDGTIGIDNVIAEVLKIIGWSDK
pI Actual (if known): ~6.7
